Results as given in US11160866B2, “Biomaterials for delivery of blood extracts and methods of using same” (Mosaic Biosciences, Inc., priority 2012, dated 2021).

Assays:
whole blood = assay: PDGF release in ACD-anticoagulated whole blood treated with activators (Example 10); format: cell-based, human; settings: after 60 minutes
Experimental: Whole blood was collected from a healthy volunteer by a certified phlebotomist into a 8.5 mL ACD-containing Vacutainer. 375 ul of 0.167 mM PAR1-AP in ultrapure water or 200 ul of 0.1 unit/microliter of thrombin (Zymogenetics) were injected into the vacutainers via a sterile 1 mL syringe; samples were gently mixed by inverting 10 times and incubated at ambient temperature for specified time. The samples were then centrifugated at 2,380×g for 5 minutes at ambient temperatures and ˜3 mL clear supernatants were collected from the top of each sample and transferred into sterile 15 mL conical tubes. Concentration of PDGF-BB in each sample was determined by ELISA (Quantikine kit, R&D Systems) according to the manufacturer's protocol.

[1] = biological target: T1, Collagenase (Matrix metalloproteinase I) (Homo sapiens, UniProt P03956); settings: cited from earlier work
T1 sequence (P03956 100-469): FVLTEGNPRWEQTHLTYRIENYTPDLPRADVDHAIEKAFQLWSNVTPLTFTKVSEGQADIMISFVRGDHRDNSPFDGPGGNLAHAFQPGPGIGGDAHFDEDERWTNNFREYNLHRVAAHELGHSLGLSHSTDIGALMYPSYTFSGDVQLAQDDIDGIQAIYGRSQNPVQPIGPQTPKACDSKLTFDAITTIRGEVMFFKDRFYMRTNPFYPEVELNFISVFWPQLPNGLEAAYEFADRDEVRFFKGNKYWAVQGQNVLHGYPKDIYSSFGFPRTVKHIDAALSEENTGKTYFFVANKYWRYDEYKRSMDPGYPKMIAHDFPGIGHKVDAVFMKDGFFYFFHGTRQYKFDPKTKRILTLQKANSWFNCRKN

platelets = assay: Selectively activated PRP and washed platelet releasates, PDGF-BB ELISA (Example 11); format: cell-based, human; settings: PRP and WP preparations, Patients A and B
Experimental: Fresh whole blood (WB) was collected into tubes containing appropriate levels of Anti-coagulant Citrate Dextrose (ACD) to prevent platelet activation and coagulation. WB samples were then split into 4 conical tubes, 50 ml WB+ACD per tube. Red Blood Cells (RBCs) were then removed by centrifuging the tubes at 3500 rpm for 10 minutes in a clinical centrifuge. Supernatants (approximately 25 ml) with some RBCs remaining were pooled into 2 conical tubes and centrifuged again at 3500 rpm for 10 minutes. Clear supernatants (plasma) were then transferred to new 50 ml conical, and Buffy Coat (BC) with some RBCs put into 15 ml conicals. […]
PRP and WPs were aliquotted into 1 ml volumes, and 4 tubes of PRP and 4 tubes of WPs were used for preparation of activated releasates: (1) no selective activation, in which no platelet activator was added (2) PAR1 activation, in which 20 ul of 500 uM PAR1 Activating Peptide (PAR1 AP) (SFLLRN, SEQ ID: 40) was added, (3) PAR4 activation, in which 20 ul of 500 uM PAR4 Activating Peptide (PAR4 AP) (AYPGKF, SEQ ID: 44) was added, and (4) ADP activation, to which 20 ul of 2.5 mM ADP (Adenosine-5′-diphosphate) was added. […] PDGF-BB levels were then measured by ELISA using a Human PDGF-BB Quantikine ELISA Kit (R&D Systems).

Compound | kcat/Km relative to that of PQGIAG [1] [%] | also measured
Nc1ncnc2c1ncn2[C@@H]1O[C@H](COP(=O)(O)OP(=O)(O)O)[C@@H](O)[C@H]1O [ADP, Adenosine-5′-diphosphate] |  | Signs of coagulation (whole blood): did not
GPQGIAGQ | 100 | 
GPQGIASQ | 130 | 
GPQGIFGQ | >300 | 
GPQGIWGQ | >700 | 
GPQGRAGQ | <5 | 
GPQGVAGQ | 9 | 
GPVGIAGQ | 30 | 
SFLLRN [PAR1-AP] |  | Release of PDGF-BB compared between activators (platelets): greatest release of PDGF-BB
Thrombin |  | Signs of coagulation (whole blood): some signs of coagulation
